# Laboratory results as given in the Human Domainome abundance scans (Beltran et al. 2025).
# ± gives the uncertainty stated by the source.
# Assay: abundance fitness (aPCA) (normalised: wild type 0, dead -1); higher = more abundant; growth selection in yeast, the domain comes from the species named
# Conditions: Homo sapiens
row,Substance,abundance fitness
1,"Scaffold attachment factor B2 A40D, Q14151",-0.409 ± 0.25
2,"Scaffold attachment factor B2 A40E, Q14151",0.022 ± 0.097
3,"Scaffold attachment factor B2 A40G, Q14151",-0.233 ± 0.1
4,"Scaffold attachment factor B2 A40L, Q14151",-0.292 ± 0.12
5,"Scaffold attachment factor B2 A40M, Q14151",0.613 ± 0.36
6,"Scaffold attachment factor B2 A40P, Q14151",-0.433 ± 0.22
7,"Scaffold attachment factor B2 A40R, Q14151",-0.368 ± 0.13
8,"Scaffold attachment factor B2 A40S, Q14151",-0.168 ± 0.12
9,"Scaffold attachment factor B2 A40T, Q14151",-0.561 ± 0.17
10,"Scaffold attachment factor B2 A40W, Q14151",-0.135 ± 0.31
11,"Scaffold attachment factor B2 A40Y, Q14151",-0.387 ± 0.11
12,"Scaffold attachment factor B2 A63C, Q14151",-0.235 ± 0.19
13,"Scaffold attachment factor B2 A63E, Q14151",-0.325 ± 0.12
14,"Scaffold attachment factor B2 A63F, Q14151",-0.628 ± 0.18
15,"Scaffold attachment factor B2 A63G, Q14151",-0.324 ± 0.083
16,"Scaffold attachment factor B2 A63I, Q14151",-0.546 ± 0.16
17,"Scaffold attachment factor B2 A63K, Q14151",-0.695 ± 0.15
18,"Scaffold attachment factor B2 A63L, Q14151",-0.984 ± 0.16
19,"Scaffold attachment factor B2 A63M, Q14151",-0.649 ± 0.13
20,"Scaffold attachment factor B2 A63P, Q14151",-0.608 ± 0.13
21,"Scaffold attachment factor B2 A63Q, Q14151",-0.292 ± 0.11
22,"Scaffold attachment factor B2 A63R, Q14151",-0.433 ± 0.089

row,Substance,abundance fitness
1,"Scaffold attachment factor B2 A63S, Q14151",-0.367 ± 0.13
2,"Scaffold attachment factor B2 A63T, Q14151",-0.44 ± 0.13
3,"Scaffold attachment factor B2 A63V, Q14151",-0.175 ± 0.11
4,"Scaffold attachment factor B2 A63W, Q14151",-0.63 ± 0.11
5,"Scaffold attachment factor B2 D37A, Q14151",-0.513 ± 0.091
6,"Scaffold attachment factor B2 D37C, Q14151",-0.548 ± 0.12
7,"Scaffold attachment factor B2 D37E, Q14151",-0.012 ± 0.095
8,"Scaffold attachment factor B2 D37F, Q14151",-0.737 ± 0.12
9,"Scaffold attachment factor B2 D37G, Q14151",-0.602 ± 0.076
10,"Scaffold attachment factor B2 D37H, Q14151",-0.865 ± 0.16
11,"Scaffold attachment factor B2 D37K, Q14151",-1.19 ± 0.18
12,"Scaffold attachment factor B2 D37L, Q14151",-0.9 ± 0.14
13,"Scaffold attachment factor B2 D37M, Q14151",-1 ± 0.21
14,"Scaffold attachment factor B2 D37N, Q14151",-0.883 ± 0.23
15,"Scaffold attachment factor B2 D37P, Q14151",-0.463 ± 0.14
16,"Scaffold attachment factor B2 D37Q, Q14151",-0.514 ± 0.11
17,"Scaffold attachment factor B2 D37R, Q14151",-1.05 ± 0.083
18,"Scaffold attachment factor B2 D37S, Q14151",-0.556 ± 0.1
19,"Scaffold attachment factor B2 D37T, Q14151",-0.597 ± 0.089
20,"Scaffold attachment factor B2 D37V, Q14151",-0.651 ± 0.088
21,"Scaffold attachment factor B2 D37W, Q14151",-0.495 ± 0.086
22,"Scaffold attachment factor B2 D37Y, Q14151",-0.797 ± 0.16

row,Substance,abundance fitness
1,"Scaffold attachment factor B2 D48A, Q14151",-0.181 ± 0.085
2,"Scaffold attachment factor B2 D48C, Q14151",-0.188 ± 0.11
3,"Scaffold attachment factor B2 D48F, Q14151",-0.338 ± 0.36
4,"Scaffold attachment factor B2 D48G, Q14151",-0.284 ± 0.077
5,"Scaffold attachment factor B2 D48I, Q14151",-0.555 ± 0.13
6,"Scaffold attachment factor B2 D48K, Q14151",-0.358 ± 0.084
7,"Scaffold attachment factor B2 D48L, Q14151",-0.513 ± 0.094
8,"Scaffold attachment factor B2 D48M, Q14151",-0.545 ± 0.14
9,"Scaffold attachment factor B2 D48P, Q14151",0.03 ± 0.089
10,"Scaffold attachment factor B2 D48Q, Q14151",-0.329 ± 0.11
11,"Scaffold attachment factor B2 D48R, Q14151",-0.625 ± 0.082
12,"Scaffold attachment factor B2 D48S, Q14151",-0.214 ± 0.086
13,"Scaffold attachment factor B2 D48T, Q14151",-0.526 ± 0.083
14,"Scaffold attachment factor B2 D48W, Q14151",-0.757 ± 0.087
15,"Scaffold attachment factor B2 D48Y, Q14151",-0.744 ± 0.14
16,"Scaffold attachment factor B2 D70A, Q14151",0.141 ± 0.14
17,"Scaffold attachment factor B2 D70C, Q14151",-0.037 ± 0.12
18,"Scaffold attachment factor B2 D70E, Q14151",0.125 ± 0.12
19,"Scaffold attachment factor B2 D70F, Q14151",-0.431 ± 0.15
20,"Scaffold attachment factor B2 D70G, Q14151",-0.036 ± 0.11
21,"Scaffold attachment factor B2 D70H, Q14151",-0.197 ± 0.13
22,"Scaffold attachment factor B2 D70I, Q14151",-0.258 ± 0.17

row,Substance,abundance fitness
1,"Scaffold attachment factor B2 D70K, Q14151",-0.337 ± 0.29
2,"Scaffold attachment factor B2 D70P, Q14151",0.014 ± 0.13
3,"Scaffold attachment factor B2 D70S, Q14151",-0.094 ± 0.15
4,"Scaffold attachment factor B2 D70V, Q14151",-0.283 ± 0.14
5,"Scaffold attachment factor B2 D70W, Q14151",-0.576 ± 0.16
6,"Scaffold attachment factor B2 E32A, Q14151",-0.445 ± 0.11
7,"Scaffold attachment factor B2 E32C, Q14151",-0.33 ± 0.12
8,"Scaffold attachment factor B2 E32D, Q14151",0.003 ± 0.1
9,"Scaffold attachment factor B2 E32F, Q14151",-0.873 ± 0.27
10,"Scaffold attachment factor B2 E32H, Q14151",-0.52 ± 0.23
11,"Scaffold attachment factor B2 E32I, Q14151",-0.657 ± 0.14
12,"Scaffold attachment factor B2 E32K, Q14151",-0.355 ± 0.23
13,"Scaffold attachment factor B2 E32L, Q14151",-0.543 ± 0.1
14,"Scaffold attachment factor B2 E32M, Q14151",-0.554 ± 0.093
15,"Scaffold attachment factor B2 E32N, Q14151",0.078 ± 0.35
16,"Scaffold attachment factor B2 E32P, Q14151",-0.474 ± 0.12
17,"Scaffold attachment factor B2 E32Q, Q14151",-0.135 ± 0.087
18,"Scaffold attachment factor B2 E32R, Q14151",-0.431 ± 0.087
19,"Scaffold attachment factor B2 E32S, Q14151",-0.36 ± 0.093
20,"Scaffold attachment factor B2 E32T, Q14151",-0.07 ± 0.13
21,"Scaffold attachment factor B2 E32V, Q14151",-0.393 ± 0.077
22,"Scaffold attachment factor B2 E32W, Q14151",-0.621 ± 0.09

row,Substance,abundance fitness
1,"Scaffold attachment factor B2 E41L, Q14151",-0.876 ± 0.35
2,"Scaffold attachment factor B2 E41R, Q14151",-1.09 ± 0.38
3,"Scaffold attachment factor B2 E41W, Q14151",-1.02 ± 0.23
4,"Scaffold attachment factor B2 E58A, Q14151",-0.129 ± 0.085
5,"Scaffold attachment factor B2 E58C, Q14151",-0.364 ± 0.12
6,"Scaffold attachment factor B2 E58D, Q14151",0.001 ± 0.12
7,"Scaffold attachment factor B2 E58F, Q14151",-0.769 ± 0.11
8,"Scaffold attachment factor B2 E58G, Q14151",-0.26 ± 0.077
9,"Scaffold attachment factor B2 E58H, Q14151",-0.338 ± 0.15
10,"Scaffold attachment factor B2 E58I, Q14151",-0.576 ± 0.11
11,"Scaffold attachment factor B2 E58K, Q14151",-0.44 ± 0.17
12,"Scaffold attachment factor B2 E58L, Q14151",-0.439 ± 0.077
13,"Scaffold attachment factor B2 E58M, Q14151",-0.162 ± 0.11
14,"Scaffold attachment factor B2 E58N, Q14151",-0.201 ± 0.099
15,"Scaffold attachment factor B2 E58P, Q14151",-0.612 ± 0.09
16,"Scaffold attachment factor B2 E58Q, Q14151",-0.319 ± 0.11
17,"Scaffold attachment factor B2 E58R, Q14151",-0.247 ± 0.072
18,"Scaffold attachment factor B2 E58T, Q14151",-0.203 ± 0.091
19,"Scaffold attachment factor B2 E58V, Q14151",-0.616 ± 0.076
20,"Scaffold attachment factor B2 E66A, Q14151",-0.092 ± 0.091
21,"Scaffold attachment factor B2 E66C, Q14151",-0.157 ± 0.13
22,"Scaffold attachment factor B2 E66D, Q14151",-0.042 ± 0.13
